Laboratory results from patent publication US20040037820A1 (published 2004).

Target: T1, VEGFR-3 full-length extracellular domain (Homo sapiens (Human), UniProt P35916 25-775)
T1 construct: the construct is not described; also called the full-length extracellular domain
T1 sequence: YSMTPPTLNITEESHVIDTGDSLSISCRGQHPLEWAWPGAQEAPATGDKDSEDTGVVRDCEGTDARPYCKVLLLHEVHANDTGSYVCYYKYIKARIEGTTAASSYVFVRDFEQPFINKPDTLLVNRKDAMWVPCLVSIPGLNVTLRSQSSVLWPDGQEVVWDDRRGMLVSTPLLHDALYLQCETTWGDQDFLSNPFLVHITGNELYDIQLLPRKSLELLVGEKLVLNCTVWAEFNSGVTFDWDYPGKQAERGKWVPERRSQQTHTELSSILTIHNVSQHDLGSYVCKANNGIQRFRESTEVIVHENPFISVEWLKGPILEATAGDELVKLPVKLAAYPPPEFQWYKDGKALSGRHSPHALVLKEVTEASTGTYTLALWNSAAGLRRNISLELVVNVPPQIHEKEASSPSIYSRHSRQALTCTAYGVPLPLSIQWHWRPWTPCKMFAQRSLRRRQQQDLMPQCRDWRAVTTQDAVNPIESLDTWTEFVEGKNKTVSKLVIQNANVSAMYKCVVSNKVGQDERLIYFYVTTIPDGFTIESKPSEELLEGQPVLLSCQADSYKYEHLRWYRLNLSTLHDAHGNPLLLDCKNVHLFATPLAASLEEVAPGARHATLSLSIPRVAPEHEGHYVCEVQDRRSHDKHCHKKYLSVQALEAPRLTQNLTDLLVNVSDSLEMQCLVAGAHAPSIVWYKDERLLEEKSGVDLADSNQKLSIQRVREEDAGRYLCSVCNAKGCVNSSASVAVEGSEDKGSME
Assay: not described

B1: VEGF-D (ligand)
chain: FYDIETLKVIDEEWQRTQCSPRETCVEVASELGKSTNTFFKPPCVNVFRCGGCCNEESLICMNTSTSYISKQLFEISVPLTSVPELVPVKVANHTGCKCLPTAPRHPYS
notes: Bought protein; also called vascular endothelial growth factor D
- binding result: binds
